How the values were obtained:
[1] = target: BG505.T332N Env on Env-pseudotyped virus (HIV-1 BG505 (clade A))
[2] = target: BG505.T332N Env on Env-pseudotyped virus (HIV-1 BG505 (clade A)); assay: cell-based or functional assay

1NC9 (antibody)
IC50, neutralization of BG505.T332N pseudovirus, TZM-bl cells [1]: 0.251 µg/mL

2G12 (antibody)
IC50, neutralization of BG505.T332N pseudovirus, TZM-bl cells [1]: 0.79 µg/mL

3BC176 (antibody)
IC50, neutralization of BG505.T332N pseudovirus, TZM-bl cells [1]: 0.175 µg/mL

3BC315 (antibody)
IC50, neutralization of BG505.T332N pseudovirus, TZM-bl cells [1]: 1.26 µg/mL

3BNC60 (antibody)
IC50, neutralization of BG505.T332N pseudovirus, TZM-bl cells [1]: 0.034 µg/mL

3BNC117 (antibody)
IC50, neutralization of BG505.T332N pseudovirus, TZM-bl cells [1]: 0.041 µg/mL

7B2 (antibody)
IC50, neutralization of BG505.T332N pseudovirus, TZM-bl cells [1]: > 30 µg/mL
IC50 of neutralization of BG505.T332N Env-pseudovirus (TZM-bl) [2]: > 30 µg/mL

8ANC195 (antibody)
IC50, neutralization of BG505.T332N pseudovirus, TZM-bl cells [1]: 0.139 µg/mL

12A12 (antibody)
IC50, neutralization of BG505.T332N pseudovirus, TZM-bl cells [1]: 0.05 µg/mL

45-46 (antibody)
IC50, neutralization of BG505.T332N pseudovirus, TZM-bl cells [1]: 0.033 µg/mL

A32 (antibody)
IC50, neutralization of BG505.T332N pseudovirus, TZM-bl cells [1]: > 30 µg/mL
IC50 of neutralization of BG505.T332N Env-pseudovirus (TZM-bl) [2]: > 30 µg/mL

CH01 (antibody)
IC50, neutralization of BG505.T332N pseudovirus, TZM-bl cells [1]: 0.301 µg/mL

CH31 (antibody)
IC50, neutralization of BG505.T332N pseudovirus, TZM-bl cells [1]: 0.014 µg/mL

CH103 (antibody)
IC50, neutralization of BG505.T332N pseudovirus, TZM-bl cells [1]: 2.57 µg/mL

CH106 (antibody)
IC50, neutralization of BG505.T332N pseudovirus, TZM-bl cells [1]: 2.7 µg/mL

F91 (antibody)
IC50, neutralization of BG505.T332N pseudovirus, TZM-bl cells [1]: > 30 µg/mL
IC50 of neutralization of BG505.T332N Env-pseudovirus (TZM-bl) [2]: > 30 µg/mL

F105 (antibody)
IC50, neutralization of BG505.T332N pseudovirus, TZM-bl cells [1]: > 30 µg/mL
IC50 of neutralization of BG505.T332N Env-pseudovirus (TZM-bl) [2]: > 30 µg/mL

F240 (antibody)
IC50, neutralization of BG505.T332N pseudovirus, TZM-bl cells [1]: > 30 µg/mL
IC50 of neutralization of BG505.T332N Env-pseudovirus (TZM-bl) [2]: > 30 µg/mL

HJ16 (antibody)
IC50, neutralization of BG505.T332N pseudovirus, TZM-bl cells [1]: 3.2 µg/mL

PG16 (antibody)
IC50, neutralization of BG505.T332N pseudovirus, TZM-bl cells [1]: 0.008 µg/mL

PGT121 (antibody)
IC50, neutralization of BG505.T332N pseudovirus, TZM-bl cells [1]: 0.015 µg/mL

PGT122 (antibody)
IC50, neutralization of BG505.T332N pseudovirus, TZM-bl cells [1]: 0.112 µg/mL

PGT123 (antibody)
IC50, neutralization of BG505.T332N pseudovirus, TZM-bl cells [1]: 0.028 µg/mL

PGT125 (antibody)
IC50, neutralization of BG505.T332N pseudovirus, TZM-bl cells [1]: 0.007 µg/mL

PGT126 (antibody)
IC50, neutralization of BG505.T332N pseudovirus, TZM-bl cells [1]: 0.01 µg/mL

PGT127 (antibody)
IC50, neutralization of BG505.T332N pseudovirus, TZM-bl cells [1]: 0.037 µg/mL

PGT128 (antibody)
IC50, neutralization of BG505.T332N pseudovirus, TZM-bl cells [1]: 0.011 µg/mL

PGT130 (antibody)
IC50, neutralization of BG505.T332N pseudovirus, TZM-bl cells [1]: 0.027 µg/mL

PGT135 (antibody)
IC50, neutralization of BG505.T332N pseudovirus, TZM-bl cells [1]: 2.23 µg/mL

PGT136 (antibody)
IC50, neutralization of BG505.T332N pseudovirus, TZM-bl cells [1]: 25.7 µg/mL
IC50 of neutralization of BG505.T332N Env-pseudovirus (TZM-bl) [2]: 26.6 µg/mL

PGT145 (antibody)
IC50, neutralization of BG505.T332N pseudovirus, TZM-bl cells [1]: 0.083 µg/mL

PGV04 (antibody)
IC50, neutralization of BG505.T332N pseudovirus, TZM-bl cells [1]: 0.066 µg/mL

VRC01 (antibody)
IC50, neutralization of BG505.T332N pseudovirus, TZM-bl cells [1]: 0.07 µg/mL

VRC03 (antibody)
IC50, neutralization of BG505.T332N pseudovirus, TZM-bl cells [1]: 0.554 µg/mL

VRC06 (antibody)
IC50, neutralization of BG505.T332N pseudovirus, TZM-bl cells [1]: 3.32 µg/mL

VRC06b (antibody)
IC50, neutralization of BG505.T332N pseudovirus, TZM-bl cells [1]: 1.11 µg/mL

X5 (antibody)
IC50, neutralization of BG505.T332N pseudovirus, TZM-bl cells [1]: > 30 µg/mL
IC50 of neutralization of BG505.T332N Env-pseudovirus (TZM-bl) [2]: > 30 µg/mL

b6 (antibody)
IC50, neutralization of BG505.T332N pseudovirus, TZM-bl cells [1]: > 30 µg/mL
IC50 of neutralization of BG505.T332N Env-pseudovirus (TZM-bl) [2]: > 30 µg/mL

b12 (antibody)
IC50, neutralization of BG505.T332N pseudovirus, TZM-bl cells [1]: > 30 µg/mL
IC50 of neutralization of BG505.T332N Env-pseudovirus (TZM-bl) [2]: 30 µg/mL
